*1 amine or outer side, *2 acyl side, *3 side chain or, on linkers, in order; H or OH if unused. Where a SMILES comes first, the peptide text is derived from it. Bridges are numbered along the chain shown (N, C = ends). Where no end group is shown, it is not given here. [ ]: non-standard residue; d: D form. X1 = O=C(C(CN[*:1])c1ccccc1)[*:2]; NMeL = CN[C@@H](CC(C)C)C(=O)O; Tle = CC(C)(C)[C@H](N)C(=O)O
T1: NPR-B (natriuretic peptide receptor B), murine, expressed endogenously on NIH3T3 cells (murine, UniProt Q6VVW5 17-1047)
T1 sequence (looked up): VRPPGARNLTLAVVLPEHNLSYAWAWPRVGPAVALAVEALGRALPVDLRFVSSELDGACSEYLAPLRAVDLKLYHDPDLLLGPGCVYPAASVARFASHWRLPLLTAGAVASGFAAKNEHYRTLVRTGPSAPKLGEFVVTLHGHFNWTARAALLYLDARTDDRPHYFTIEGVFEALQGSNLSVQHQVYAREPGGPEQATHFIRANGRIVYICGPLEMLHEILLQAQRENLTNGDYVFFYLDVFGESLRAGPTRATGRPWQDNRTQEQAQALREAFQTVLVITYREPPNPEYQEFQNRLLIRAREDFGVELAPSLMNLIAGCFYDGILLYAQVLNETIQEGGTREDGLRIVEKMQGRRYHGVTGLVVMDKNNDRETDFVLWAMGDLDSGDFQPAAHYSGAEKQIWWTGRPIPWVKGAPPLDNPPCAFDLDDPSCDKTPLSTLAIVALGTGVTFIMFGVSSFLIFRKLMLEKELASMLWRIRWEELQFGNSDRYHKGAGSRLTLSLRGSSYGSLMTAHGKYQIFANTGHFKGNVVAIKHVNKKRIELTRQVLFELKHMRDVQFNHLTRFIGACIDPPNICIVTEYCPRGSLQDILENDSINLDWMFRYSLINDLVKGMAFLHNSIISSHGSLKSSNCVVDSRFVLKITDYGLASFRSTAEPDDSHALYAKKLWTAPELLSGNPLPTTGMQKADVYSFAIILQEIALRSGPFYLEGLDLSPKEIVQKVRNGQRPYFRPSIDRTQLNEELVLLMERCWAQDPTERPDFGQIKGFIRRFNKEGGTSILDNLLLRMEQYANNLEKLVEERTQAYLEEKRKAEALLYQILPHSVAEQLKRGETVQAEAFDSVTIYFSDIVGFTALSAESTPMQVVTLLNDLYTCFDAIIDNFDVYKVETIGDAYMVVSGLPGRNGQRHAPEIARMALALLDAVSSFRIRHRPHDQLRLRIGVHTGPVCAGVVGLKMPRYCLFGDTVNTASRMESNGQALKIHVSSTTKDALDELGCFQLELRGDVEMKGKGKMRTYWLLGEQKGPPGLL


What was measured:
[1] = target: neutral endopeptidase (NEP) (Homo sapiens, UniProt P08473); test: in vitro NEP cleavage assay (disappearance of non-cleaved CNP variant); conditions: human, pH 7
In short: (§1)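 Recombinant human NEP (1 ug/mL final) incubated with 100 uM CNP variant in 0.1 M Tris, pH 7, at 37° C for various times, then quenched with EDTA (10 mM final) and heat. Samples reduced and analysed by HPLC and mass spectrometry. Half-life derived from loss of intact variant over time.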

Recombinant human NEP = Recombinant human NEP (Homo sapiens, UniProt P08473); test: as above
In short: as §1

[2] = pharmacokinetics in rats (plasma CNP immunoreactivity by RIA); type: in vivo, rat; conditions: male, rat, plasma, iv, i.v. 20 nmol/kg
Procedure: Recombinant wild-type CNP22, CNP37 and PEO24-GANRR-CNP22 […]) (SEQ ID NO: 36) were evaluated. […] Standard and QC samples were prepared. […] Plasma CNP immunoreactivity was employed for pharmacokinetics (PK) analysis. PK analysis was performed using WINNONLIN® Professional (Pharsight Corporation).

[3] = target: T1, NPR-B (natriuretic peptide receptor B), …; test: cell-based or functional assay

Chain of neutral endopeptidase (NEP) (P08473 whole entry): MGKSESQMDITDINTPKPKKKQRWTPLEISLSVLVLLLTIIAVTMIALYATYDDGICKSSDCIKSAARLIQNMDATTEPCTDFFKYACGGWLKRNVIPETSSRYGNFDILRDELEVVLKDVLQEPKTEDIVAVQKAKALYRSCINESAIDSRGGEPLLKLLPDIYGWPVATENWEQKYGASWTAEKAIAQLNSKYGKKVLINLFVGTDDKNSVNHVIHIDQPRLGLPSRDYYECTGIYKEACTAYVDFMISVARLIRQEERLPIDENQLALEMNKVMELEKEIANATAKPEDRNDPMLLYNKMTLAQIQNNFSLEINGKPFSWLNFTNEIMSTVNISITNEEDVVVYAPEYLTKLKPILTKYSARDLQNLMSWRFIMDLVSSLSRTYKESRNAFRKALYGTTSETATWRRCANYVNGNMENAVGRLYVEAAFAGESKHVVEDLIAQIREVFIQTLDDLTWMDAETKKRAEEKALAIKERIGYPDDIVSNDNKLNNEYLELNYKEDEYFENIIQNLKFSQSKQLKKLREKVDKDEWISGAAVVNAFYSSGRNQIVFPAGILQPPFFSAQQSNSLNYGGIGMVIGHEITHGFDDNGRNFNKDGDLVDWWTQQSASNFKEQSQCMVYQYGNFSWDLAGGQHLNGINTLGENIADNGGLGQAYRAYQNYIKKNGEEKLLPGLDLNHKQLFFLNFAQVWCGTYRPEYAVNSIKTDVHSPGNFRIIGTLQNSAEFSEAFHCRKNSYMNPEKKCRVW
Chain of Recombinant human NEP (P08473 whole entry): as above

Molecule | cGMP response rel. to 1 uM CNP22; 10 nM peptide, NIH3T3 cells [3] | cGMP response rel. to 1 uM CNP22; 1 uM peptide, NIH3T3 cells [3] | further results
CC[C@H](C)[C@@H]1NC(=O)[C@H](CCCNC(=N)N)NC(=O)[C@H](CC(=O)O)NC(=O)[C@H](CC(C)C)NC(=O)[C@H](CCCCN)NC(=O)[C@H](CC(C)C)NC(=O)CNC(=O)[C@H](Cc2ccccc2)NC(=O)[C@@H](NC(=O)CNC(=O)CNC(=O)[C@H](CO)NC(=O)[C@H](CC(C)C)NC(=O)CN)CSSC[C@@H](C(=O)O)NC(=O)CNC(=O)[C@H](CC(C)C)NC(=O)CNC(=O)[C@H](CO)NC(=O)[C@H](CCSC)NC(=O)[C@H](CO)NC(=O)CNC1=O [Analog P, CNP22, K4G] (H-GLSGGCFGLKLDRIGSMSGLGC-OH; disulfide 6-22) |  |  | half-life at 100 uM ([1]; recombinant human neutral endopeptidase (NEP)): 1.13 h
CC[C@H](C)[C@@H]1NC(=O)[C@H](CCCNC(=N)N)NC(=O)[C@H](CC(=O)O)NC(=O)[C@H](CC(C)C)NC(=O)[C@H](CCCCN)NC(=O)[C@H](CC(C)C)NC(=O)CNC(=O)[C@H](Cc2ccccc2)NC(=O)[C@@H](NC(=O)CNC(=O)[C@H](CCCCN)NC(=O)[C@H](CO)NC(=O)[C@H](CC(C)C)NC(=O)CNC(=O)CCOCCOCCOCCOCCOCCOCCOCCOCCOCCOCCOCCOC)CSSC[C@@H](C(=O)O)NC(=O)CNC(=O)[C@H](CC(C)C)NC(=O)CNC(=O)[C@H](CO)NC(=O)[C@H](CCSC)NC(=O)[C@H](CO)NC(=O)CNC1=O [PEO12-CNP22] |  |  | half-life at 100 uM [1]: 2.67 h
CC[C@H](C)[C@@H]1NC(=O)[C@H](CCCNC(=N)N)NC(=O)[C@H](CC(=O)O)NC(=O)[C@H](CC(C)C)NC(=O)[C@H](CCCCN)NC(=O)[C@H](CC(C)C)NC(=O)CNC(=O)C(c2ccccc2)CNC(=O)[C@@H](NC(=O)CNC(=O)[C@H](CCCCN)NC(=O)[C@H](CO)NC(=O)[C@H](CC(C)C)NC(=O)CN)CSSC[C@@H](C(=O)O)NC(=O)CNC(=O)[C@H](CC(C)C)NC(=O)CNC(=O)[C@H](CO)NC(=O)[C@H](CCSC)NC(=O)[C@H](CO)NC(=O)CNC1=O (stereo partly shown) [Analog H] (H-GLSKGC[X1]GLKLDRIGSMSGLGC-OH; disulfide 6-22) |  |  | half-life at 100 uM ([1]; recombinant human NEP (neutral endopeptidase)): 1.33 h; resistance to cleavage at the Cys6-Phe7 bond relative to wtCNP22 (Recombinant human NEP): resistance or improved resistance
CC[C@H](C)[C@@H]1NC(=O)[C@H](CCCNC(=N)N)NC(=O)[C@H](CC(=O)O)NC(=O)[C@H](CC(C)C)NC(=O)[C@H](CCCCN)NC(=O)[C@H](CC(C)C)NC(=O)CNC(=O)[C@H](Cc2ccccc2)NC(=O)[C@@H](NC(=O)CNC(=O)[C@H](CCCCN)NC(=O)[C@H](CO)NC(=O)[C@H](CC(C)C)NC(=O)CNC(=O)[C@H](CCCCN)NC(=O)[C@H](CCCCN)NC(=O)[C@H](CC(N)=O)NC(=O)[C@H](C)NC(=O)CNC(=O)[C@H](CCCCN)NC(=O)[C@H](Cc2ccc(O)cc2)NC(=O)[C@H](CCCCN)NC(=O)[C@H](CCCNC(=N)N)NC(=O)[C@H](C)NC(=O)[C@H](CC(N)=O)NC(=O)[C@@H]2CCCN2C(=O)[C@H](Cc2c[nH]cn2)NC(=O)[C@H](CCC(=O)O)NC(=O)[C@@H](N)CCC(N)=O)CSSC[C@@H](C(=O)O)NC(=O)CNC(=O)[C@H](CC(C)C)NC(=O)CNC(=O)[C@H](CO)NC(=O)[C@H](CCSC)NC(=O)[C@H](CO)NC(=O)CNC1=O [Analog BL] |  |  | AUC ([2]; read-out: area under the curve, AUC (converted)): 0.026 µM·h; half-life ([2]; read-out: half-life, T1/2): 0.825 h
CC[C@H](C)[C@@H]1NC(=O)[C@H](CCCNC(=N)N)NC(=O)[C@H](CC(=O)O)NC(=O)[C@H](CC(C)C)NC(=O)[C@H](CCCCN)NC(=O)[C@H](CC(C)C)NC(=O)CNC(=O)[C@H](Cc2ccccc2)NC[C@@H](NC(=O)CNC(=O)[C@H](CCCCN)NC(=O)[C@H](CO)NC(=O)[C@H](CC(C)C)NC(=O)CN)CSSC[C@@H](C(=O)O)NC(=O)CNC(=O)[C@H](CC(C)C)NC(=O)CNC(=O)[C@H](CO)NC(=O)[C@H](CCSC)NC(=O)[C@H](CO)NC(=O)CNC1=O [Analog A] |  |  | half-life at 100 uM [1]: 0.917 h; resistance to cleavage at the Cys6-Phe7 bond relative to wtCNP22 (Recombinant human NEP): resistance or improved resistance
CC[C@H](C)[C@@H]1NC(=O)[C@H](CCCNC(=N)N)NC(=O)[C@H](CC(=O)O)NC(=O)[C@H](CC(C)C)NC(=O)[C@H](CCCCN)NC(=O)[C@H](CC(C)C)NC(=O)CNC(=O)[C@H](Cc2ccccc2)NC(=O)[C@@H](NC(=O)CNC(=O)[C@H](CCCCN)NC(=O)[C@H](CO)NC(=O)[C@H](CC(C)C)NC(=O)CNC(=O)CCCC(=O)NCCOCCOCCOCCOCCC(=O)NC(COCCC(=O)NCCOCCOCCOCCOCCOCCOCCOCCOCCOCCOCCOC)(COCCC(=O)NCCOCCOCCOCCOCCOCCOCCOCCOCCOCCOCCOC)COCCC(=O)NCCOCCOCCOCCOCCOCCOCCOCCOCCOCCOCCOC)CSSC[C@@H](C(=O)O)NC(=O)CNC(=O)[C@H](CC(C)C)NC(=O)CNC(=O)[C@H](CO)NC(=O)[C@H](CCSC)NC(=O)[C@H](CO)NC(=O)CNC1=O [PEO4-(PEO12)3(branched)-CNP22] |  |  | half-life at 100 uM [1]: > 2.67 h
GLSKGCFGLK[NMeL]DRIGSMSGLGC (ends and bridges not checked) [CNP22, N-methyl-L11] | 10 rel. to 1 uM CNP22 (100) | 51 rel. to 1 uM CNP22 (100) | 
GLSKGCXGLKLDRIGSMSGLGC (D-Phe at 7) [CNP22, D-F7 (D-Phe)] | 2 rel. to 1 uM CNP22 (100) | 6 rel. to 1 uM CNP22 (100) | 
GLSKGCFG[NMeL]KLDRIGSMSG[NMeL]GC (ends and bridges not checked) [CNP22, N-methyl-L9, N-methyl-L20] | 1 rel. to 1 uM CNP22 (100) | 1 rel. to 1 uM CNP22 (100) | 
G[dL][dS][dK]G[dC][dF]G[dL][dK][dL][dD][dR][dI]G[dS][dM][dS]G[dL]G[dC] (ends and bridges not checked) [D-CNP22 (all D-amino acids)] | 2 rel. to 1 uM CNP22 (100) | 1 rel. to 1 uM CNP22 (100) | 
GLSKGCXGLKLDRIGSMSGLGC (3-Cl-Phe at 7) [CNP22, 3-chloro-F7] | 17 rel. to 1 uM CNP22 (100) | 93 rel. to 1 uM CNP22 (100) | 
GLSKGCFG[NMeL]K[NMeL]DRIGSMSGLGC (ends and bridges not checked) [CNP22, N-methyl-L9, N-methyl-L11] | 1 rel. to 1 uM CNP22 (100) | 11 rel. to 1 uM CNP22 (100) | 
GLSKGCFGLKLDRIGSMSGLGC (ends and bridges not checked; also: backbone C=O of Cys6 reduced to CH2 (C6-CH2-NH isostere)) [CNP22, C6-CH2-NH (reduced carbonyl)] | 6 rel. to 1 uM CNP22 (100) | 66 rel. to 1 uM CNP22 (100) | 
GLSKGCFG[NMeL]K[NMeL]DRIGSMSG[NMeL]GC (ends and bridges not checked) [CNP22, N-methyl-L9, N-methyl-L11, N-methyl-L20] | 18 rel. to 1 uM CNP22 (100) | 10 rel. to 1 uM CNP22 (100) | 
GLSKGCF[Tle]LKLDRIGSMSGLGC (ends and bridges not checked) [CNP22, t-butyl-G8] | 2 rel. to 1 uM CNP22 (100) | 18 rel. to 1 uM CNP22 (100) | 
GLSKGCFGLKLDRIGSMSG[NMeL]GC (ends and bridges not checked) [CNP22, N-methyl-L20] | 2 rel. to 1 uM CNP22 (100) | 5 rel. to 1 uM CNP22 (100) | 
GLSKGCFG[NMeL]KLDRIGSMSGLGC (ends and bridges not checked) [CNP22, N-methyl-L9] | 2 rel. to 1 uM CNP22 (100) | 8 rel. to 1 uM CNP22 (100) | 
